In article PMC7382501:

Target: FasRLVL triple mutant (Leu106, Val163 and Leu185 to phenylalanine) (Mycobacterium tuberculosis) (UniProt O05858)
Assay: SEC

In the case of “FasRLVL triple mutant (Leu106, Val163 and Leu185 to phenylalanine) (from UniProt O05858 1-228) (natural protein)”, the percent eluting as a monomer is reported as under 50%, the percent eluting as the wild-type protein (dimer) is reported as over 50% and the stoichiometry N is reported as 2.
